Test results as given in article PMC12822413, “TSHR‐Targeting Nucleic Acid Aptamer Treats Graves' Ophthalmopathy via Novel Allosteric Inhibition” (Advanced Science, 2025).

Molecular target: T1, thyrotropin receptor (TSHR), wild type, on HEK293T cells stably expressing it (TSHR-293T) (human, UniProt P16473-1)
T1 construct: human thyrotropin receptor, cDNA from GeneCopoeia (NM_000369.4) cloned into pLVX-Puro; also called TSHR-293T cells; source: HEK293T, lentiviral transduction (pLVX-Puro), puromycin selected, on cells
Assay: flow cytometry on cells; competitive binding assay of M22 and the DNA aptamer YC3 on TSHR-293T cells; each in excess against the other
Conditions: one partner purified

binding result: binds
B1: Human monoclonal autoantibody to the TSHR (M22) (antibody, V domains shown)
VH: QVQLVQSGAEVKKPGESLKISCRGSGYRFTSYWINWVRQLPGKGLEWMGRIDPTDSYTNYSPSFKGHVTVSADKSINTAYLQWSSLKASDTGMYYCARLEPGYSSTWSVNWGQGTLVTVS
VL: LTVLTQPPSVSGAPRQRVTISCSGNSSNIGNNAVNWYQQLPGKAPKLLIYYDDQLPSGVSDRFSGSRSGTSASLAIRGLQSEDEADYYCTSWDDSLDSQLFGGGTRLTVL
notes: also called human TSAb; source: bought: RSR (Cardiff, UK)
